# Reference: article PMC9712689 (Communications Biology, 2022)
# B1: RlpA-SPOR (domain or fragment, P. aeruginosa PAO1, UniProt Q9X6V6 264-342, looked up)
# chain: ADGLYLQVGAFANPDAAELLKAKLSGVTAAPVFISSVVRNQQILHRVRLGPIGSADEVSRTQDSIRVANLGQPTLVRPD
# B2: RlpA-Δ32 (domain or fragment)
# chain: PQQPARQAGISGPGDYSRPHRDGAPWWDVDVSRIPDAVPMPHNGSVKANPYTVLGKTYYPMNDARAYRMVGTASWYGTKFHGQATANGETYDLYGMTAAHKTLPLPSYVRVTNLDNGKSVIVRVNDRGPFYSDRVIDLSFAAAKKLGYAETGTARVKVEGIDPVQWWAQRGRPAPMVLAQPKQAVAQAAPAAAQTQAVAMAQPIETYTPPPAQHAAAVLPVQIDSKKNASLPADGLYLQVGAFANPDAAELLKAKLSGVTAAPVFISSVVRNQQILHRVRLGPIGSADEVSRTQDSIRVANLGQPTLVRPD
# notes: source: E. coli BL21-star (DE3), purified (Ni-NTA)
# Key:
# Conditions in all cases: both partners purified
# [1] = molecular target: T1, MltF2 (P. aeruginosa PAO1, UniProt Q9HZY1 1-476); test: SPR; RlpA-Δ81 or RlpA-SPOR amine-coupled to its own CM4 chip, partner as analyte; 25 °C; 10 mM HEPES pH 7.4, 150 mM NaCl, 3 mM EDTA, 0.005% P20; alternate fitting model for PBP1a on RlpA-SPOR
# T1 sequence (looked up): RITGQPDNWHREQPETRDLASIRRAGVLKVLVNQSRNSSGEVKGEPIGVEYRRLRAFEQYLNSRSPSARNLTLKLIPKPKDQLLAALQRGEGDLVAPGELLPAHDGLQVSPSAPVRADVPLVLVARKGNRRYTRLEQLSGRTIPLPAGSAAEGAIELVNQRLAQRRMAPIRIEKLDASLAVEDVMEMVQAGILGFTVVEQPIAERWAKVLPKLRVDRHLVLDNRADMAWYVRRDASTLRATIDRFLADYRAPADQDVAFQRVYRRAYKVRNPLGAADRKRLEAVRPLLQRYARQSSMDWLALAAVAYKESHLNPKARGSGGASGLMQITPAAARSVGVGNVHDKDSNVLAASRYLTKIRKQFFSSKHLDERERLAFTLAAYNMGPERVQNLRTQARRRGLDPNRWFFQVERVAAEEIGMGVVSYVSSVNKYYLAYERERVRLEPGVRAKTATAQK
# [2] = molecular target: T2, PBP1a (P. aeruginosa PAO1, UniProt Q07806 27-822); test: as above
# [3] = molecular target: T3, MltD (P. aeruginosa PAO1, UniProt Q9I2T2 1-534); test: as above
# T3 sequence (looked up): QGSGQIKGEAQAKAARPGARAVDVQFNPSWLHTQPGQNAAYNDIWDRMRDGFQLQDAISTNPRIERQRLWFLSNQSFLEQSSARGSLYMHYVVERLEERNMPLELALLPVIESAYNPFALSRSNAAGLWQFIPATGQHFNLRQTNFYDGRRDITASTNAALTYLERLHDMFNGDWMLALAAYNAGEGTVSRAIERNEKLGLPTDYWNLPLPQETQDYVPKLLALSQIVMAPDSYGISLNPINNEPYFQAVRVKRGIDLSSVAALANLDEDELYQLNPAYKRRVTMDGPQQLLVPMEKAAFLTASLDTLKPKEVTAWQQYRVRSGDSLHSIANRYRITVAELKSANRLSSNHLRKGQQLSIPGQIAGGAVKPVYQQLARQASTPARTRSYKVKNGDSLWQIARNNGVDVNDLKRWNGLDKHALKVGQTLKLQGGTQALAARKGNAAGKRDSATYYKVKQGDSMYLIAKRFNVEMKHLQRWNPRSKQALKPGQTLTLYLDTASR
# [4] = molecular target: T4, TypA (P. aeruginosa PAO1, UniProt Q9HU67 1-605); test: as above
# T4 sequence (looked up): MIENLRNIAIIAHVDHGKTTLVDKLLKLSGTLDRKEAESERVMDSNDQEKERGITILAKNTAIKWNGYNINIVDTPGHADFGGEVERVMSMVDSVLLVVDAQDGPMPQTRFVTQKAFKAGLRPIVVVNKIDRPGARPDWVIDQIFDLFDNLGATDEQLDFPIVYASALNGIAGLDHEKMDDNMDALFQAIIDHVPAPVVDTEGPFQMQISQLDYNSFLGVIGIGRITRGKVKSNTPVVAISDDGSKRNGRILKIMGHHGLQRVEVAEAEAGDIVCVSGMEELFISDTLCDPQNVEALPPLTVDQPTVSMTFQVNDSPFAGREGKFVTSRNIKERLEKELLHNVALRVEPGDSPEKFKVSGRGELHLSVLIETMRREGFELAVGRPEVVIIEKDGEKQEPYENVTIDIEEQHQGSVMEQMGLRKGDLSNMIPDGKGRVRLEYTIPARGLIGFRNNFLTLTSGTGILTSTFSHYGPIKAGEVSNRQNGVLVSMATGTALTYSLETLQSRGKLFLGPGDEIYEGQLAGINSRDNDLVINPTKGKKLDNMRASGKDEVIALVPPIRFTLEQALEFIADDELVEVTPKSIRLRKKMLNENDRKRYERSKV
# [5] = molecular target: T5, SltB1 (P. aeruginosa PAO1, UniProt Q9HX24 1-340); test: ITC
# T5 sequence (looked up): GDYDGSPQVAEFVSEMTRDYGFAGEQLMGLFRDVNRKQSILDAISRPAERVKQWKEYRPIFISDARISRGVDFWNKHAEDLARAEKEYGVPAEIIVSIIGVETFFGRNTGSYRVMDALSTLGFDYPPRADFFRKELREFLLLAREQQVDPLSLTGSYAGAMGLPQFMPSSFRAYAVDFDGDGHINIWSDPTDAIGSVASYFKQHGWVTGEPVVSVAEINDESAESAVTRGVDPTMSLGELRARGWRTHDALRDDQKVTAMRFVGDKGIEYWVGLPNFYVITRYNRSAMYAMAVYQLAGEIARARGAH
# [6] = molecular target: T2, PBP1a; test: ITC
# [7] = molecular target: T6, PilA (P. aeruginosa PAO1, UniProt P04739); test: ITC
# T6 construct: source: E. coli, purified (Ni-NTA or Strep-Tactin)
# T6 sequence: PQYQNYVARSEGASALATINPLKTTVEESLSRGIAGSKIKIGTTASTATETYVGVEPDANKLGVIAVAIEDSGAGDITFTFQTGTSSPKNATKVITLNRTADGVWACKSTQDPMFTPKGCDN
# [8] = molecular target: T7, PilO (P. aeruginosa PAO1, UniProt G3XD51); test: SPR
# T7 construct: source: E. coli, purified (Ni-NTA or Strep-Tactin)
# T7 sequence: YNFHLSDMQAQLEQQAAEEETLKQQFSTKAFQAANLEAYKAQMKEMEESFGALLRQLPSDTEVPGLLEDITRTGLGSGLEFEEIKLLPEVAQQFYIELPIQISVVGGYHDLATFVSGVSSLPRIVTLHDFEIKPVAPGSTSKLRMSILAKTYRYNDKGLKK
# [9] = molecular target: T8, PA2854 (P. aeruginosa PAO1, UniProt Q9HZZ0); test: SPR
# T8 construct: source: E. coli, purified (Ni-NTA or Strep-Tactin)
# T8 sequence: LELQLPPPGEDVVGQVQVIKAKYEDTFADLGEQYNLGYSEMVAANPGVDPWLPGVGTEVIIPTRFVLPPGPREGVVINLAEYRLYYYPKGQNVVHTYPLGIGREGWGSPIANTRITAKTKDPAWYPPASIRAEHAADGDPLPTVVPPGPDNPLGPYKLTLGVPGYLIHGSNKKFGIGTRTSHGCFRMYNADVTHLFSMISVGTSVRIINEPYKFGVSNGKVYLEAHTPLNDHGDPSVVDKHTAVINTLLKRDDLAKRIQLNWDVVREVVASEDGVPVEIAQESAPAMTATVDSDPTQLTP
# [10] = molecular target: T1, MltF2; test: SPR
# [11] = molecular target: T9, PBP4 (P. aeruginosa PAO1, UniProt Q9HZG1 1-476); test: SPR
# T9 sequence (looked up): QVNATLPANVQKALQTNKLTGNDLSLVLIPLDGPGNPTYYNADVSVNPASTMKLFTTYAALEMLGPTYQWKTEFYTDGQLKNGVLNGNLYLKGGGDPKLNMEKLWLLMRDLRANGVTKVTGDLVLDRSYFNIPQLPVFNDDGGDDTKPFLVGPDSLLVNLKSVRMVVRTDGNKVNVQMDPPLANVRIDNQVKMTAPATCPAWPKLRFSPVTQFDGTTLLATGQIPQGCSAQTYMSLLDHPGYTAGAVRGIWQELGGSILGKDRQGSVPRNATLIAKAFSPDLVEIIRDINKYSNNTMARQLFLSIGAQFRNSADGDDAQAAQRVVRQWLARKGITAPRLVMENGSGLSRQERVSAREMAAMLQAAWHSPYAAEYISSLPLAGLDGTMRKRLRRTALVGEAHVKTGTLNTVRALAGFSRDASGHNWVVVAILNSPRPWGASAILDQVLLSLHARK
# [12] = molecular target: T2, PBP1a; test: SPR
# [13] = molecular target: T3, MltD; test: SPR
# [14] = molecular target: MltF (P. aeruginosa PAO1, UniProt Q9HXN1 33-490); test: SPR
# [15] = molecular target: T10, SltB2 (P. aeruginosa PAO1, UniProt Q9I4G6 1-398); test: SPR
# T10 sequence (looked up): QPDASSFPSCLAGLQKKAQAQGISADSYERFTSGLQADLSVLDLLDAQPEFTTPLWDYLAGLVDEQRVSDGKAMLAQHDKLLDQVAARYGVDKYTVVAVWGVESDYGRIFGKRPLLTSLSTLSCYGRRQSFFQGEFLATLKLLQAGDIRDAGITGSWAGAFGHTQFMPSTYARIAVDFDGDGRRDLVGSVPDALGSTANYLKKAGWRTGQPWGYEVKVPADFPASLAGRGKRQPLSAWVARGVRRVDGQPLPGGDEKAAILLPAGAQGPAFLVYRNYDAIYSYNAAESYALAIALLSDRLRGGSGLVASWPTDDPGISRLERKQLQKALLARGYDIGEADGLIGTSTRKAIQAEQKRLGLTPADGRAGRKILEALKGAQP
# [16] = molecular target: T11, MltB (P. aeruginosa PAO1, UniProt Q9HVX3 1-367); test: SPR
# T11 sequence (looked up): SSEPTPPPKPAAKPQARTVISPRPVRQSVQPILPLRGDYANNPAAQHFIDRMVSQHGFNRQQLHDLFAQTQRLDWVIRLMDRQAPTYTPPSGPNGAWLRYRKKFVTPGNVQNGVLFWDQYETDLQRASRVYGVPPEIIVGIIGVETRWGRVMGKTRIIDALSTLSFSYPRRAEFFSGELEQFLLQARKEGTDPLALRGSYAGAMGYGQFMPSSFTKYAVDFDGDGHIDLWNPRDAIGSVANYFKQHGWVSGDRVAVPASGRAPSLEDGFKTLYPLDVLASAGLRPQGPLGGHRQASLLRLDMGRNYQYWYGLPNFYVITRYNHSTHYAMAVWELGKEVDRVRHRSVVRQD
# [17] = molecular target: T4, TypA; test: SPR
# T2 sequence (Q07806 27-822): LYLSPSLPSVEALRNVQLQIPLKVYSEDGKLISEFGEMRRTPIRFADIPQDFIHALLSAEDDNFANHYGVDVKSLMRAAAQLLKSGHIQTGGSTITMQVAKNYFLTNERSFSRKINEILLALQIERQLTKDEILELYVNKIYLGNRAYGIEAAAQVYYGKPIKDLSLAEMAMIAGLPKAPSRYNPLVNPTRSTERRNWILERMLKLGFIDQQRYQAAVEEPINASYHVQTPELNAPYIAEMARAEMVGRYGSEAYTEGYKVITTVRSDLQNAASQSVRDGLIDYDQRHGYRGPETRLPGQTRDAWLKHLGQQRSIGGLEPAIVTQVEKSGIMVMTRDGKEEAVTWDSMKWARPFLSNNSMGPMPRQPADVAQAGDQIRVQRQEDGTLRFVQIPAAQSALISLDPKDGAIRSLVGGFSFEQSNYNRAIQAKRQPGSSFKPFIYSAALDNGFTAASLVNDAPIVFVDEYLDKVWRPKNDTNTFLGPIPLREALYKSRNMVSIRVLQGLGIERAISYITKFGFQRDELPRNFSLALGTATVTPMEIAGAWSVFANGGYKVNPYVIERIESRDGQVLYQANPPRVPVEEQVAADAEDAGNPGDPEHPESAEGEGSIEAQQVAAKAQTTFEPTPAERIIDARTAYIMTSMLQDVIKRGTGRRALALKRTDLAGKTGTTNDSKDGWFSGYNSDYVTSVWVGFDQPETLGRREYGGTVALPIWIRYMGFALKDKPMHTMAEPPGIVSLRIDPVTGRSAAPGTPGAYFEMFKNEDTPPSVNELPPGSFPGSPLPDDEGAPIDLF
# Chain of MltF (Q9HXN1 33-490): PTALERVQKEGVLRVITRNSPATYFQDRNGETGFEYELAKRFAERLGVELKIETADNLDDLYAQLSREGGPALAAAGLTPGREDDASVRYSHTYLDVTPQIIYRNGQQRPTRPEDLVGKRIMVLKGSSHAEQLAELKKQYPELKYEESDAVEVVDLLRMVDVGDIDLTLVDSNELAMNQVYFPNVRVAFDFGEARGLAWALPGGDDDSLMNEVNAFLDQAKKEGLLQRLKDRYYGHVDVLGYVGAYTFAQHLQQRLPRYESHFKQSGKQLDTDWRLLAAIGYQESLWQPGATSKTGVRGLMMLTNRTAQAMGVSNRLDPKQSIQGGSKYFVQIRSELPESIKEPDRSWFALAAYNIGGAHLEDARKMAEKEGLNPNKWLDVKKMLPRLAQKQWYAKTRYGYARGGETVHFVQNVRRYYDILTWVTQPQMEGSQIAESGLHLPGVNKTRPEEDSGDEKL
binder,measurement,setting,value
B1,Kd,[1],98 nM
same,koff,[1],0.00077 s⁻¹
same,kon,[1],7900 M⁻¹ s⁻¹
same,Kd,[2],190 nM
same,koff,[2],0.00049 s⁻¹
same,kon,[2],2600 M⁻¹ s⁻¹
same,Kd,[3],200 nM
same,koff,[3],0.0027 s⁻¹
same,kon,[3],13800 M⁻¹ s⁻¹
same,Kd,[4],4250 nM
same,koff,[4],0.00034 s⁻¹
same,kon,[4],80 M⁻¹ s⁻¹
same,Kd,[5],9800 nM
same,Kd,[6],104 nM
same,stoichiometry N,[6],0.26
same,Kd,[7],73 nM
same,stoichiometry N,[7],1
same,Kd,[8],5760 nM
same,koff,[8],0.00438 s⁻¹
same,kon,[8],760 M⁻¹ s⁻¹
same,Kd,[9],1410 nM
same,koff,[9],0.00038 s⁻¹
same,kon,[9],270 M⁻¹ s⁻¹
B2,Kd,[10],6 nM
same,koff,[10],0.00028 s⁻¹
same,kon,[10],44000 M⁻¹ s⁻¹
same,Kd,[11],130 nM
same,koff,[11],0.00086 s⁻¹
same,kon,[11],6700 M⁻¹ s⁻¹
same,Kd,[12],340 nM
same,koff,[12],0.00144 s⁻¹
same,kon,[12],4200 M⁻¹ s⁻¹
same,Kd,[13],430 nM
same,koff,[13],0.00116 s⁻¹
same,kon,[13],2700 M⁻¹ s⁻¹
same,kon,[14],500 M⁻¹ s⁻¹
same,Kd,[15],1040 nM
same,koff,[15],0.0005 s⁻¹
same,kon,[15],480 M⁻¹ s⁻¹
same,Kd,[16],620 nM
same,koff,[16],0.00079 s⁻¹
same,kon,[16],1270 M⁻¹ s⁻¹
same,Kd,[17],2020 nM
same,koff,[17],0.00077 s⁻¹
same,kon,[17],380 M⁻¹ s⁻¹
